Source: US20170306033A1 (Amgen, published 2017)
Where a chain is given by its changes, count along the chain named.

T1: human PAC1 receptor (human, UniProt P41586 21-468)
T1 sequence: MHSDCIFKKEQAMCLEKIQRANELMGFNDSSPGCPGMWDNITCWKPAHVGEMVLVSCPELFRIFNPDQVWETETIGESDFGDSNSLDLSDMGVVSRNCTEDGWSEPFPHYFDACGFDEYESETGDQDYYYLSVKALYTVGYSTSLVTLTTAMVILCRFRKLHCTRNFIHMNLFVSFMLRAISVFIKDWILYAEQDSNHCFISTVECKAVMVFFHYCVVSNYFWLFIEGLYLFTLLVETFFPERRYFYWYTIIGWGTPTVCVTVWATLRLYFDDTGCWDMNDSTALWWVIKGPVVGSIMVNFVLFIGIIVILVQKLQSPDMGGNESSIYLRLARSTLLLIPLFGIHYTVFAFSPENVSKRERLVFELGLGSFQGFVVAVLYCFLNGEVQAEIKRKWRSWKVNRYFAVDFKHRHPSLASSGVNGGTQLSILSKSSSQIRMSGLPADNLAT

B1: iPS:327094 (bispecific antibody, human IgG1, kappa, N297G)
light 1: EIVLTQSPATLSLSPGERATLSCRASQSVGRSLHWYQQKPGQAPRLLIKYASQSLSGIPARFSGSGSGTDFTLTISSLEPEDFAVYYCHQSSRLPFTFGPGTKVDIKRTVAAPSVFIFPPSDEQLKSGTASVVCLLNNFYPREAKVQWKVDNALQSGNSQESVTEQDSKDSTYSLESTLTLSKADYEKHKVYACEVTHQGLSSPVTKSFNRGEC
heavy 1: not shown
light 2: EIVLTQSPGTLSLSPGERATLSCRASQSVSSGYLTWYQQKPGQAPRLLIYGASSRATGIPDRFSGSGSGTDFTLTISRLEPEDFAVYYCQQYGNSLSRFGQGTKLEIKRTVAAPSVFIFPPSDEQLKSGTASVVCLLNNFYPREAKVQWKVDNALQSGNSQESVTEQDSKDSTYSLKSTLTLSKADYEKHKVYACEVTHQGLSSPVTKSFNRGEC
heavy 2: not shown
B2: iPS:327270 (bispecific antibody, human IgG1, kappa, lambda, N297G)
light 1: B1 light 1
heavy 1: not shown
light 2: not shown
heavy 2: not shown
B3: iPS:326654 (bispecific antibody, human IgG2, kappa, lambda)
light 1: B1 light 1
heavy 1: QVQLVESGGGVVQPGRSLRLSCAASGFTFSRFAMHWVRQAPGKGLEWVAVISYDGGNKYYAESVKGRFTISRDNSKNTLYLQMNSLRAEDTALFYCARGYDVLTGYPDYWGQGTLVTVSSASTKGPSVFPLAPCSRSTSESTAALGCLVKDYFPEPVTVSWNSGALTSGVHTFPAVLQSSGLYSLKSVVTVPSSNFGTQTYTCNVDHKPSNTKVDKTVERKCCVECPPCPAPPVAGPSVFLFPPKPKDTLMISRTPEVTCVVVDVSHEDPEVQFNWYVDGVEVHNAKTKPREEQFNSTFRVVSVLTVVHQDWLNGKEYKCKVSNKGLPAPIEKTISKTKGQPREPQVYTLPPSREEMTKNQVSLTCLVDGFYPSDIAVEWESNGQPENNYDTTPPMLDSDGSFFLYSDLTVDKSRWQQGNVFSCSVMHEALHNHYTQKSLSLSPGK
light 2: not shown
heavy 2: not shown
B4: iPS:327112 (bispecific antibody, human IgG1, kappa, lambda, N297G)
light 1: B1 light 1
heavy 1: not shown
light 2: not shown
heavy 2: not shown
B5: iPS:327104 (bispecific antibody, human IgG1, kappa, lambda, N297G)
light 1: B1 light 1
heavy 1: not shown
light 2: not shown
heavy 2: not shown
B6: iPS:327108 (bispecific antibody, human IgG1, kappa, lambda, N297G)
light 1: B1 light 1 with P100E
heavy 1: not shown
light 2: not shown
heavy 2: EVQLVESGGGLVKPGGSLRLSCAASGFTFGNAWMSWVRQAPGKELEWVGRIKSKTDGGTTDYAAPVKGRFTISRDDSKNTLYLQMNSLKTEDTAVYFCTTDRTGYSISWSSYYYYYGMDVWGQGTTVTVSSASTKGPSVFPLAPSSKSTSGGTAALGCLVKDYFPEPVTVSWNSGALTSGVHTFPAVLQSSGLYSLESVVTVPSSSLGTQTYICNVNHKPSNTKVDKKVEPKSCDKTHTCPPCPAPELLGGPSVFLFPPKPKDTLMISRTPEVTCVVVDVSHEDPEVKFNWYVDGVEVHNAKTKPCEEQYGSTYRCVSVLTVLHQDWLNGKEYKCKVSNKALPAPIEKTISKAKGQPREPQVYTLPPSRKEMTKNQVSLTCLVKGFYPSDIAVEWESNGQPENNYKTTPPVLKSDGSFFLYSKLTVDKSRWQQGNVFSCSVMHEALHNHYTQKSLSLSPGK
B7: iPS:327103 (bispecific antibody, human IgG1, kappa, lambda, N297G)
light 1: DIQLTQSPSFLSASVGDRVTITCRASQSIGRSLHWYQQKPGKAPKLLIKYASQSLSGVPSRFSGSGSGTEFTLTISSLQPEDFATYYCHQSSRLPFTFGPGTKVDIKRTVAAPSVFIFPPSDEQLKSGTASVVCLLNNFYPREAKVQWKVDNALQSGNSQESVTEQDSKDSTYSLESTLTLSKADYEKHKVYACEVTHQGLSSPVTKSFNRGEC
heavy 1: not shown
light 2: not shown
heavy 2: not shown
B8: iPS:327269 (bispecific antibody, human IgG1, kappa, lambda, N297G)
light 1: B7 light 1
heavy 1: not shown
light 2: not shown
heavy 2: not shown
B9: iPS:327111 (bispecific antibody, human IgG1, kappa, lambda, N297G)
light 1: B7 light 1
heavy 1: not shown
light 2: not shown
heavy 2: not shown
B10: iPS:327106 (bispecific antibody, human IgG1, kappa, lambda, N297G)
light 1: not shown
heavy 1: not shown
light 2: not shown
heavy 2: B6 heavy 2
B11: iPS:327107 (bispecific antibody, human IgG1, kappa, lambda, N297G)
light 1: B7 light 1 with P100E
heavy 1: not shown
light 2: not shown
heavy 2: B6 heavy 2
B12: iPS:327274 (bispecific antibody, human IgG1, kappa, lambda, N297G)
light 1: B7 light 1 with P100E
heavy 1: not shown
light 2: not shown
heavy 2: B6 heavy 2 with G30S, A63T, T90A, F97Y
B13: iPS:327273 (bispecific antibody, human IgG1, kappa, lambda, N297G)
light 1: not shown
heavy 1: not shown
light 2: not shown
heavy 2: B6 heavy 2 with G30S, A63T, T90A, F97Y
B14: iPS:327272 (bispecific antibody, human IgG1, kappa, lambda, N297G)
light 1: DIQMTQSPSSLSASVGDRITITCRASQSISRYLNWYQQKPGKAPKLLIYAASSLQSGIPSRFSGSGSGTDFTLTINSLQPEDFATYFCQQSYSPPFTFGEGTKVDIKRTVAAPSVFIFPPSDEQLKSGTASVVCLLNNFYPREAKVQWKVDNALQSGNSQESVTEQDSKDSTYSLESTLTLSKADYEKHKVYACEVTHQGLSSPVTKSFNRGEC
heavy 1: not shown
light 2: not shown
heavy 2: B6 heavy 2 with G30S, A63T, T90A, F97Y
B15: iPS:327105 (bispecific antibody, human IgG1, kappa, lambda, N297G)
light 1: B14 light 1
heavy 1: not shown
light 2: not shown
heavy 2: B6 heavy 2

target: human CGRP receptor (human, UniProt Q16602 23-461; O60894 27-148); experiment: cell-based or functional assay
Sequence (Q16602 23-461 limits assumed, chain 1 of 2): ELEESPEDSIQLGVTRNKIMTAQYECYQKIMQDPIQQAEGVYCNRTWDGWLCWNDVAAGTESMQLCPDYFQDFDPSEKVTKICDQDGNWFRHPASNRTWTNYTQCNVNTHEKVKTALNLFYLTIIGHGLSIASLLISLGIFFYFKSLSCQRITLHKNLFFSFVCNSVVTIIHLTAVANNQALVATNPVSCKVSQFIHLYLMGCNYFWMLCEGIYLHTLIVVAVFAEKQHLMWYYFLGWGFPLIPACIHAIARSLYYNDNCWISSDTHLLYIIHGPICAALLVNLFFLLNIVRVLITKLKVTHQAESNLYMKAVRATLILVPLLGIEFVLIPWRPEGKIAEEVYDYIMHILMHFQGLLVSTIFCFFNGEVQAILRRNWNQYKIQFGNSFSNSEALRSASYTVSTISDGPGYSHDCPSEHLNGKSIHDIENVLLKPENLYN
Sequence (O60894 27-148 limits assumed, chain 2 of 2): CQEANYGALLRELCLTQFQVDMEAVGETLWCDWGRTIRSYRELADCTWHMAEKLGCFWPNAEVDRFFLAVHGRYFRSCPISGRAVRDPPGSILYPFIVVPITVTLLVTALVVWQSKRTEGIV

Row | % inhibition of human CGRPR [%] | Binder
1 | 73 | B1
2 | 71 | B2
3 | 79 | B3
4 | 84 | B4
5 | 81 | B5
6 | 66 | B6
7 | 82 | B7
8 | 79 | B8
9 | 88 | B9
10 | 71 | B10
11 | 76 | B11
12 | 87 | B12
13 | 81 | B13
14 | 81 | B14
15 | 81 | B15

target: T1, human PAC1 receptor; experiment: cell-based or functional assay

Row | % inhibition of human PAC1 [%] | Binder
16 | 91 | B1
17 | 82 | B2
18 | 99 | B3
19 | 104 | B4
20 | 95 | B5
21 | 74 | B6
22 | 21 | B7
23 | 8 | B8
24 | 65 | B9
25 | 6 | B10
26 | 22 | B11
27 | 22 | B12
28 | 10 | B13
29 | 62 | B14
30 | 63 | B15
